{"source": "paper PMC5467207", "about": "“Single-peptide DNA-dependent RNA polymerase homologous to multi-subunit RNA polymerase” (Nature Communications, 2017)", "molecules": {"B1": {"name": "YonO (Bacillus subtilis subsp. subtilis str. 168) (protein)", "chain": "MKGKKDGLNKQVHIYSIDTSAFYNDQENKLHNKILKSYRYRDHLRKLEHVDKKHKKYITQRIISLKEKLYNAFNDHNQIRTLRTDSLKDNNVISLFDSVLTRTLGIKENSLSEEIMVVQTYHFQILRDIIDKGFIHNNEKYVYFTSSAGQIRTKKSCFIKQSTLDKYQNALTCGLSVEHINAQGGSSINKWNSYMALSNSASSSWEIDIDKAIVVNDLETNVSSLVDYIDRDTYEITRKIMDIPIEHTDGCGMMLPSLSQKSFMVRLPWVKGLLVPFDFRKFAEKHSSFIVKDVYGKEWDIIKDDIQIIFTKSQFKMWKYYDSWDDYRYKFKKYGCLGAKLNEEDPSVEGKLTYQMLQTLTDITDEELKQISSKTVSEITQLGTDKETMMKVLGATEKNKHKTSLQEALLIYPELLNDDHTKEIIKNKKKSMIKDAKSGKLLVSDARYTYLCPDLYAFCERLFLGIESPKGLLSGSDVHCSLYDEGYIDILRSPHLFREHGVRWNKKNEEYEKWFITPGVYTSIHDPISKLLQFDNDGDKALIISDELIVNIAKRNMADIVPLYYEMSVAQKQEINSRNIYEALTLAYGINIGEYSNNITKIWNSDNINLDVIKWLCMENNFTIDFAKTLFMPTRPDHVDEKIKDYIKNKVPHFFINAKDKEEHSVESINESTVNKLDSIIPSDRINFAAVAGKFDYRFLLKNKEIKLNEAVINEYKRLDRNKKWLMNDEEAKPGQKLYVYKIIKQKLLEIHNDDGFITDVLVKHLYKKKSKYKSTLWECFGDIVLENIKHNLKTFKGCCICGKAFKPTSNKAKYCQSCGKKKERDKYKKYNKKRINHR", "notes": "N-terminal 6xHis-tag, pET-28a, expressed in E. coli T7 Express; single chain, ~100 kDa"}}, "key": {"[1]": {"test_system": "T1, Nc1nc2c(ncn2[C@@H]2O[C@H](COP(=O)(O)OP(=O)(O)OP(=O)(O)O)[C@@H](O)[C@H]2O)c(=O)[nH]1", "T1 construct": "core enzyme without sigma, ~400 kDa five-subunit core (2α, β, β′, ω); 6xHis tag on the RNAP; with DNA-directed RNA polymerase subunit alpha; DNA-directed RNA polymerase subunit omega", "assay": "misincorporation in assembled elongation complexes, Urea-PAGE, Michaelis-Menten fit", "assay_type": "biochemical, Escherichia coli", "conditions": "misincorporation (non-cognate NTP for the template base), assembled elongation complex, pH 8.5, MgCl2"}, "[2]": {"substrate": "Nc1ncnc2c1ncn2[C@@H]1O[C@H](COP(=O)(O)OP(=O)(O)OP(=O)(O)O)[C@@H](O)[C@H]1O", "assay": "RNA extension in assembled elongation complexes, Urea-PAGE, Michaelis-Menten fit", "assay_type": "biochemical, Bacillus subtilis", "conditions": "10 °C, assembled elongation complex (template DNA, RNA primer), 20 mM Tris-HCl pH 8.5, 40 mM KCl, 10 mM MgCl2"}, "[3]": {"substrate": "Nc1nc2c(ncn2[C@@H]2O[C@H](COP(=O)(O)OP(=O)(O)OP(=O)(O)O)[C@@H](O)[C@H]2O)c(=O)[nH]1", "assay": "misincorporation in assembled elongation complexes, Urea-PAGE, Michaelis-Menten fit", "assay_type": "biochemical, Bacillus subtilis", "conditions": "misincorporation (non-cognate NTP for the template base), assembled elongation complex, pH 8.5, MgCl2"}}}
{"molecule": "E. coli core msRNAP (Escherichia coli K-12)", "values": [{"measurement": "Km", "setting": "[1]", "value": "458 ± 23", "unit": "µM"}]}
{"molecule": "B1", "values": [{"measurement": "Km", "setting": "[2]", "value": "1.8 ± 0.7", "unit": "µM"}, {"measurement": "Km", "setting": "[3]", "value": "126 ± 41", "unit": "µM"}]}
